Where a chain is given by its changes, count along the chain named.
Tests used:
Assay type in all cases: binding
[1] = test system: C.albicans Rad51; assay: Y2H assay RAD51/SEQ ID NO.: 5 pair; set-up: key: cells having the interaction would survive (+); cells not having the interaction would die (−) on selective media (−ADE, −HIS)
Protocol: (§1) RAD51-binding peptides were tested for ability to bind RAD51 of several different species using a “conventional” Y2H assay, where interaction between the two-hybrid pair drove expression of ADE2 and HIS genes.

[2] = molecular target: T1, H.sapiens Rad51 (Homo sapiens, UniProt Q06609); assay: Y2H assay RAD51/SEQ ID NO.: 5 pair; set-up: key: cells having the interaction would survive (+); cells not having the interaction would die (−) on selective media (−ADE, −HIS)
T1 construct: expressed in transfected cells
T1 sequence (Q06609 1-339): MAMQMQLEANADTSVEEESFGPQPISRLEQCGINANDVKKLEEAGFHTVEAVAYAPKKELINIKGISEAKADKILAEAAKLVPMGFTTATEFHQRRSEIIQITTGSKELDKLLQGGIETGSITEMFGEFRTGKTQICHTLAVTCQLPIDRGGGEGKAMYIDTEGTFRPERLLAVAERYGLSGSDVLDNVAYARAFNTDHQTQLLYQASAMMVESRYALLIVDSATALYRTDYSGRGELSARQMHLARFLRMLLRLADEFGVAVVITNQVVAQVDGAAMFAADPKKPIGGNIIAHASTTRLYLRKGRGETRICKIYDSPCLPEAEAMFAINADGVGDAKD
Protocol: as §1

[3] = molecular target: T2, Rad51 (A190L; A192L) (Homo sapiens, UniProt Q06609, A190L/A192L); assay: Y2H assay, human RAD51 mutants; set-up: key: (+) denotes a successful interaction between the two Y2H baits; (−) denotes a lack of interaction
T2 construct: expressed in transfected cells
T2 sequence (Q06609 1-339 A190L/A192L): T1 sequence (Q06609 1-339) with A190L, A192L
Protocol: (§2) The ability of peptides to bind human RAD51 with various mutations was then tested by Y2H assay. […] While mutations affecting BRCA2 binding had no effect on peptide binding, mutations that affected RAD51-AP1 binding did disrupt peptide binding. As these mutations were at residues 202, 205, and 206, they were consistent with the previous fusion data showing binding somewhere in the 190-218 region, and indicated the peptide SEQ ID NO.: 5 contacts at least residues 202, 205, and 206 of RAD51.

[4] = molecular target: T3, Rad51 (F86E; A89E) (Homo sapiens, UniProt Q06609, A89E/F86E); assay: Y2H assay, human RAD51 mutants; set-up: key: (+) denotes a successful interaction between the two Y2H baits; (−) denotes a lack of interaction
T3 construct: expressed in transfected cells
T3 sequence (Q06609 1-339 F86E/A89E): T1 sequence (Q06609 1-339) with F86E, A89E
Protocol: as §2

[5] = molecular target: T4, Rad51 (Q202R, Y205D, Q206A) (Homo sapiens, UniProt Q06609, Q202R/Q206A/Y205D); assay: Y2H assay, human RAD51 mutants; set-up: key: (+) denotes a successful interaction between the two Y2H baits; (−) denotes a lack of interaction
T4 construct: expressed in transfected cells
T4 sequence (Q06609 1-339 Q202R/Y205D/Q206A): T1 sequence (Q06609 1-339) with Q202R, Y205D, Q206A
Protocol: as §2

[6] = molecular target: T5, Rad51 (S208E; A209D) (Homo sapiens, UniProt Q06609, A209D/S208E); assay: Y2H assay, human RAD51 mutants; set-up: key: (+) denotes a successful interaction between the two Y2H baits; (−) denotes a lack of interaction
T5 construct: expressed in transfected cells
T5 sequence (Q06609 1-339 S208E/A209D): T1 sequence (Q06609 1-339) with S208E, A209D
Protocol: as §2

[7] = molecular target: T6, Rad51 (S208L; A209E; M210A) (Homo sapiens, UniProt Q06609, A209E/M210A/S208L); assay: Y2H assay, human RAD51 mutants; set-up: key: (+) denotes a successful interaction between the two Y2H baits; (−) denotes a lack of interaction
T6 construct: expressed in transfected cells
T6 sequence (Q06609 1-339 S208L/A209E/M210A): T1 sequence (Q06609 1-339) with S208L, A209E, M210A
Protocol: as §2

Q: What does the source list for KRRRRRRRKRLGVRLRVSRML [SEQ ID NO.: 5]?
A: Compound 5 Sequence Binding [1]: +; Compound 5 Sequence Binding [2]: +; Y2H interaction with SEQ ID NO.: 5 [3]: +; Y2H interaction with SEQ ID NO.: 5 [4]: +; Y2H interaction with SEQ ID NO.: 5 [5]: −; Y2H interaction with SEQ ID NO.: 5 [6]: +; Y2H interaction with SEQ ID NO.: 5 [7]: +
